Series [1] relates to NCI-H292. In words: MTT assay, cytotoxic effects of the ADCs. Format: cell-based. The note with it: Homo sapiens, metabolite. Here is the method:
(§1) The analysis of the cytotoxic effects of the anti-TWEAKR-ADCs was carried out with various cell lines:
NCI-H292: human mucoepidermoid lung carcinoma cells, ATCC-CRL-1848, standard medium: RPMI 1640 (Biochrom; #FG1215, stab. glutamine)+10% FCS (Biochrom; #S0415), TWEAKR-positive, EGFR-positive.
(§2) The cells are cultivated by a standard method, as indicated in the […] (ATCC) for the respective cell lines.
(§3) The test was carried out by detaching the cells with a solution of Accutase in PBS (Biochrom AG #L2143), pelleting, resuspending in culture medium, counting and seeding the cells into a 96-well culture plate with white bottom (Costar #3610, LoVo:1000 cells/well, SK-HEP-1: 1200 cell/well, NCI H292: 1500 cell/well in a total volume of 100 μL). The cells were then incubated in an incubator at 37° C. and 5% carbon dioxide. After 48 h, the antibody drug conjugates were added in 10 μl of culture medium in concentrations of from 10^−5M to 10^−13M to the cells (triplicates) and incubated in an incubator at 37° C. and 5% carbon dioxide. After 96h, the proliferation was measured using the MTT assay (ATCC, Manassas, Va., USA, catalogue No. 30-1010K). […] The dye formed was detected at 570 nm (Infinite M1000 pro, Fa. Tecan). Based on the measured data the IC50 value was determined from the DRC (dose response curve). […]
Background: Tetrazolium assays rely on reduction of a dye to a coloured formazan, in cell work by metabolically active cells.

Series [2] deals with KPL4. In words: MTT assay, cytotoxic effects of the ADCs. As to conditions: Homo sapiens, metabolite, read-out: KPL-4 IC50 [M] MTT Assay. The class given is cell-based. The method, then:
as §1
KPL4: human breast carcinoma cells, standard medium: RPMI 1640+GlutaMAX I+10% FBS, cell bank, Bayer Pharma AG (identity checked and confirmed on 19 Jul. 2012 at DSMZ), Berlin, ERBB2-positive.
as §2, §3

Series [3] in a line: Caco-2 flux assay for cell permeability. Format: in vitro ADME. The note with it: human; Caco-2, 2 hours. The method, then:
The cell permeability of a substance can be investigated by means of in vitro testing in a flux assay using Caco-2 cells [M. D. Troutman and D. R. Thakker, Pharm. Res. 20 (8), 1210-1224 (2003)]. For this purpose, the cells were cultured for 15-16 days on 24-well filter plates. For the determination of permeation, the respective working example was applied in a HEPES buffer to the cells either apically (A) or basally (B) and incubated for 2 hours. After 0 hours and after 2 hours, samples were taken from the cis and trans compartments. The samples were separated by HPLC (Agilent 1200, Böblingen, Germany) using reverse phase columns. The HPLC system was coupled via a Turbo Ion Spray Interface to a Triple Quadropol mass spectrometer API 4000 (Applied Biosystems Applera, Darmstadt, Germany). The permeability was evaluated on the basis of a Papp value, which was calculated using the formula published by Schwab et al. [D. Schwab et al., J. Med. Chem. 46, 1716-1725 (2003)].
Of critical importance for toxophores which are released intracellularly is the permeability from B to A [Papp (B−A)] and the ratio of Papp (B−A) to Papp (A−B) (efflux ratio): the lower this permeability, the slower the active and passive transport processes of the substance through the monolayer of Caco-2 cells.
For orientation: Passage across Caco-2 layers is used to estimate intestinal permeability.

The target in series [4] is recombinant human TWEAKR protein (TPP-2305) (Homo sapiens (Human), UniProt Q9NP84). In words: Biacore surface plasmon resonance binding affinity. The note with it: for ka / kd: monovalent, 1:1 binding model. Here is the method: Binding affinities of anti-TWEAKR antibodies were examined using surface plasmon resonance analysis on a Biacore T100 instrument (GE Healthcare Biacore, Inc.). The antibodies were immobilized on a CMS sensor chip using an indirect capture reagent, anti-human IgG(Fc). Reagents of the “Human Antibody Capture Kit” (BR-1008-39, GE Healthcare Biacore, Inc.) were used as described by the manufacturer. Anti-TWEAKR antibodies were injected at a concentration of 10 μg/ml at 10 μl/min for 10 sec.
Sensorgrams were generated after in-line reference cell correction, followed by subtraction of the buffer sample. The dissociation constant (KD) was calculated based on the ratio of association (kon) and dissociation (koff) constants, obtained by fitting sensorgrams using a 1:1 first order binding model.

Series [5] concerns the target hTNFRSF12 amino acids a28-80-H60K-hIgG1-Fc (TPP-1989) (Homo sapiens (Human), UniProt Q9NP84, H60K). In words: ELISA mutein binding. The note with it: mutein coated 62 ng/ml, biotinylated IgG; read-out: Effect of muteins on antibody binding: H60K. Here is the method: (§4) To this end, the full-length ectodomain (amino acids 28-80) having the individual amino acid substitutions below were expressed and purified as Fc fusion proteins: T33Q; S40R; W42A; M50A; R56P; H60K; L65Q.
(§5) To obtain dose-reaction data, the different TWEAKR-Fc muteins were coated at a low concentration (62 ng/ml) onto a 384-well Maxisorb ELISA plate, and a serial 2-fold dilution of biotinylated IgG beginning with a concentration of 100 nM was used as a soluble binding partner. Detection was carried out using streptavidin-HRP and Amplex Red.
(§6) IgGs were biotinylated using an about 2-fold molar excess of biotin-LC-NHS (Pierce; Cat. No. 21347) according to the instructions of the manufacturer and desalted using Zeba desalting columns (Pierce; Cat. No. 89889). The dose-reaction data were fitted and the IC50s were determined.

The target of series [6] is hTNFRSF12 amino acids a28-80-R56P-hIgG1-Fc (TPP-2683) (Homo sapiens (Human), UniProt Q9NP84, R56P). In words: ELISA mutein binding. As to conditions: mutein coated 62 ng/ml, biotinylated IgG; read-out: Effect of muteins on antibody binding: R56P. Here is the method:
as §4, §5, §6
(In general: ELISA stands for enzyme-linked immunosorbent assay.)

The target in series [7] is hTNFRSF12 amino acids a28-80-M50A-hIgG1-Fc (TPP-1988) (Homo sapiens (Human), UniProt Q9NP84, M50A). In words: ELISA mutein binding. The note with it: mutein coated 62 ng/ml, biotinylated IgG; read-out: Effect of muteins on antibody binding: M50A. The method, then:
as §4, §5, §6

The target of series [8] is hTNFRSF12 amino acids a28-80-S40R-hIgG1-Fc (TPP-1987) (Homo sapiens (Human), UniProt Q9NP84, S40R). In words: ELISA mutein binding. The note with it: mutein coated 62 ng/ml, biotinylated IgG; read-out: Effect of muteins on antibody binding: S40R. Here is the method: as §4, §5, §6
Series [9] has as its target hTNFRSF12 amino acids a28-80-T33Q-hIgG1-Fc (TPP-1986) (Homo sapiens (Human), UniProt Q9NP84, T33Q). In words: ELISA mutein binding. The note with it: mutein coated 62 ng/ml, biotinylated IgG; read-out: Effect of muteins on antibody binding: T33Q. Here is the method:
as §4, §5, §6

Series [10] concerns the target hTNFRSF12 amino acids a28-80-W42A-hIgG1-Fc (TPP-1985) (Homo sapiens (Human), UniProt Q9NP84, W42A). In words: ELISA mutein binding. The note with it: mutein coated 62 ng/ml, biotinylated IgG; read-out: Effect of muteins on antibody binding: W42A. The method, then:
as §4, §5, §6

The target of series [11] is hTNFRSF12 amino acids a28-80-L65Q-hIgG1-Fc (TPP-1990) (Homo sapiens (Human), UniProt Q9NP84, L65Q). In words: ELISA mutein binding. The note with it: mutein coated 62 ng/ml, biotinylated IgG; read-out: Effect of muteins on antibody binding: L65Q. Here is the method: as §4, §5, §6
The target in series [12] is hTNFRSF12 amino acids a28-80-hIgG1-Fc (TPP-599) (Homo sapiens (Human), UniProt Q9NP84). In words: ELISA mutein binding (wild type). As to conditions: coated 62 ng/ml, biotinylated IgG; read-out: Effect of muteins on antibody binding: WT. The method, then:
as §4, §5, §6

Series [13] deals with TWEAKR (Homo sapiens (Human), UniProt Q9NP84). As to conditions: literature values; read-out: published KD values; cited from earlier work.
The mark [14] stands for this setting: Biacore, read-out: KD (affinity to TWEAKR).

Read-outs that look alike come from different tables or passages of the source.

As for `CC(=O)N[C@@H](CCCCNC(=O)CC[C@H](N)C(=O)O)C(=O)NCCNC(=O)[C@@H](N)CCN(C(=O)CO)[C@@H](c1cc(-c2cc(F)ccc2F)cn1Cc1ccccc1)C(C)(C)C.O=C(O)C(F)(F)F` [Example M100, N^6-L-gamma-glutamyl-N^2-acetyl-N-[2-({(2S)-2-amino-4-[{(1R)-1-[1-benzyl-4-(2,5-difluorophenyl)-1H-pyrrol-2-yl]-2,2-dimethylpropyl}(glycoloyl)amino]butanoyl}amino)ethyl]-L-lysinamide trifluoro acetate (1:1)], the values for the IC50 in [1] and in series [2] were over 500000 pM and over 5e-07 M, respectively. Further, the Papp B→A (commonly how fast a substance crosses the layer from the basolateral side) at 2 h in series [3] was 0.12 ×10⁻⁶ cm/s.

B1: P2D3(TPP-2196): comparative anti-TWEAKR antibody; variable domains from patent literature "WO2009/020933 and WO2009/140177", constant region added, "resulting in full-length IgGs" (antibody)
heavy: QVSLKESGPGILQPSQTLSLTCSFSGFSLSTSGMGVSWIRQPSGKGLEWLAHIYWDDDKRYNPSLKSRLTISKDTSRNQVFLKITSVDTADTATYYCARRGPDYYGYYPMDYWGQGTSVTVSAKTTAPSVYPLAPVCGDTTGSSVTLGCLVKGYFPEPVTLTWNSGSLSSGVHTFPAVLQSDLYTLSSSVTVTSSTWPSQSITCNVAHPASSTKVDKKIEPRGPTIKPCPPCKCPAPNLLGGPSVFIFPPKIKDVLMISLSPIVTCVVVDVSEDDPDVQISWFVNNVEVHTAQTQTHREDYNSTLRVVSALPIQHQDWMSGKEFKCKVNNKDLPAPIERTISKPKGSVRAPQVYVLPPPEEEMTKKQVTLTCMVTDFMPEDIYVEWTNNGKTELNYKNTEPVLDSDGSYFMYSKLRVEKKNWVERNSYSCSVVHEGLHNHHTTKSFSRTPG
light: DIVLTQSPASLAVSLGQRATISCRASKSVSTSSYSYMHWYQQKPGQPPKLLIKYTSNLESGVPARFSGSGSGTDFILNIHPVEEEDAATYYCQHSRELPWTFGGGTKLEIKRADAAPTVSIFPPSSEQLTSGGASVVCFLNNFYPKDINVKWKIDGSERQNGVLNSWTDQDSKDSTYSMSSTLTLTKDEYERHNSYTCEATHKTSTSPIVKSFNRNEC
modifications: Mus Musculus
For the molecule B1, the Kd (as a rule, a measure of binding affinity in units of concentration) in series [4] (setting [14]) lay within 700 to 3700 pM. Moreover, the Kd in series [4] (monovalent KD, read-out: KD) worked out at 400 pM. For the same molecule, in [4], the “ka” value came out at 1.32e+06 M⁻¹ s⁻¹ and the “kd” value is 0.000564 s⁻¹.

B2: 18.3.3(TPP-2193): comparative anti-TWEAKR antibody; variable domains "obtained from the patent literature WO2009/020933", constant region added, "resulting in full-length IgGs" (antibody)
heavy: EVKLGESGGGLVQPGGSMKLSCVASGFPFTKYWMNWVRQSPEKGLEWVAEIRLKSDNYATHYAESAKGRFTISRDDSRSSVYLQMNNLRAEDTAIYYCSPTYADTMDYWGQGTSVTVSSAKTTAPSVYPLAPVCGDTTGSSVTLGCLVKGYFPEPVTLTWNSGSLSSGVHTFPAVLQSDLYTLSSSVTVTSSTWPSQSITCNVAHPASSTKVDKKIEPRGPTIKPCPPCKCPAPNLLGGPSVFIFPPKIKDVLMISLSPIVTCVVVDVSEDDPDVQISWFVNNVEVHTAQTQTHREDYNSTLRVVSALPIQHQDWMSGKEFKCKVNNKDLPAPIERTISKPKGSVRAPQVYVLPPPEEEMTKKQVTLTCMVTDFMPEDIYVEWTNNGKTELNYKNTEPVLDSDGSYFMYSKLRVEKKNWVERNSYSCSVVHEGLHNHHTTKSFSRTPG
light: DIVLTQSPASLAVSLGQRATISCKASQSVSTSTYSYMQWYQQRPGQSPKLLIKYASKLDSGVPARFSGSGSGTDFTLNIHPVEEEDTATYYCQHSWELPYTFGGGTRLEIKRADAAPTVSIFPPSSEQLTSGGASVVCFLNNFYPKDINVKWKIDGSERQNGVLNSWTDQDSKDSTYSMSSTLTLTKDEYERHNSYTCEATHKTSTSPIVKSFNRNEC
modifications: Mus Musculus
For B2, the Kd in series [4] (setting [14]) was 700 to 3700 pM; in series [13] it was 200 pM. Also, the “ka” value in series [4] was found to be 1.64e+07 M⁻¹ s⁻¹. Moreover, the “kd” value in [4] was found to be 0.0285 s⁻¹. Moreover, the IC50 in [5] is 1 to 150 pM; in [6], over 50000 pM; in series [7] it was 1 to 150 pM; in series [8] it was 1 to 150 pM; in [9], 1 to 150 pM; in series [10], over 50000 pM. Also, the IC50 in series [11] and in [12] was 1 to 150 pM in each case.

Source of the values: patent US11806404B2, “Site specific homogeneous with KSP inhibitors” (BAYER PHARMA AKTIENGESELLSCHAFT, priority 2015, dated 2023).
